The data set can be described thus: soluble on expression in E. coli; label from the status in PepcDB or PDB records.
With “MGQPIITRDAGRYFLTDRIRHEVDWWNTPQARGEEPPPVQKPVAPGAMVIPLPPPATWGIPPCSLADGIARRESRRRFRAVPLTPEELAFLLWATQGVRARLNEAAVLRTVPSAGCRHPFETYLAILSVTGIEPAVYRYLPLDHALVLEREVPDLAATVTAAAHGQRFAGEAAVTFVWTAIPARTEWRYAEASYKVIALDAGHVCQNLYLACEAIGAGTCAIAAYRQALADELLGVDGREEFTVYLAPVGKV”, the “soluble on expression in E. coli” value is reported as “not soluble”.
For “MSLSRPQFDPSAYAAQLEDKKSRLAGLLAPFAAPAPEVFESPREHYRLRAEFRLWRETGNEKRHYAMFEQGDKHTPILLEDFPIASRRINELMPRLKAAWADPALGFKLFQVEFLTTLAGDALITLCYHRPIDDAWRQAAEKLAAELGVNLVGRSRGKRIVVGRDYVEEELSVAGRRFRYRQPEGAFTQPNGEVNQKMLGWAYEALGQRDDDLLELYCGNGNFTLPLATRVRKVLATEISKSSVNAALANLADNAVDNVSLVRLSAEELTQALNEVRPFRRLADIDLKSYAFGSVFVDPPRAGMDPDTCELARRFERILYISCNPETLAQNIAQLHDTHRISRCALFDQFPYTHHMESGVLLEEGHHHHHH”, the “soluble on expression in E. coli” value was “soluble”.
Then “MGSDKIHHHHHHMIDLSTDYLGLKLKNPLVPSASPLSRNLDNALRLEDAGAAALVMYSLFEEELRAEDAMLDRFLTCPDFGHSEAANFLPSAPFEDGLERYVSQLQKLKARLGIPVIASLNGVSRSGWVELGRALEEAGADALELNVYHVAAEMWENGEAVEARYLSLLRDLRHAVKLPIVMKLSPFFSSLPNFVKRLEHAGAQGVVLFNRFYQPDIDLDTLCVVDRLHLSYPDEALLRIRWLSILHGRTGLTLAATGGVHSHDEALKMLLVGADVIHLASCLLQHGPARLTRILQDIERWMGERDYASVAQLKGSMSQKNLLDPAAMARLSYLRVLDSFSPQPGVWS”, with “not soluble”; and “MGSDKIHHHHHHMLLTRTQIRRLVYAHGREILEHDHMAIERVCYQHGVVTTFAHSIRVACLSVWLADRLHLWNRVDLRSLIRAALLHDYFLYDWHDWDNGTHRLHGFTHGETAMRNAIRDFKLNQIERDSIEHHMFPLTPYPPKYIEGYLVTAADKISATKETLSFDRFDKPASEQPTDRS”, with “not soluble”; and “MGSDKIHHHHHHMESAKDITGRIFNIQKYSIYDGDGVRTLIFMKGCNIRCPWCANPEGIRRAYQILFSPDKCLHCGKCAEACPRGIHTLIADEYGSRFHHIDRTVQCTGCRKCEAACPSNALDIVGKDMTVAELMAVIMQDYSFYQSSGGGVTLSGGEVSLQTDFAVALLQACKQKMINTAVETQGTTSISHYDQLAAVTDMFLFDIKHIDTNQHKALFGIGNENIRRNLEHLVELGANIVIRMPLVRGYNDSYDAIMGAIHYVQKLAKRGNVRRIDILPYHQLGRKKYERLGMIYPIKADPSYNEEELNRLDAFFDEFDFDIRLVRH”, with “not soluble”.
In the case of “MNPASPFATLTDRIDWQKVDGLVPAIVQDFQSSQVLMMGYMNPEALQKTLDTQQVTFFSRSKQRLWTKGETSGHVLQLKNIALDCDQDTLLVKVNPIGPTCHTGTVTCWDGDAQEESQMVWLHQLEQLLAERKNADPSSSYTASLYARGTKRIAQKVGEEGVEVALAATAGDKEELICESADLMYHLLVLLQEQGLAMNDVINKLKERHK” it was “not soluble”; in that of “MREYKVVVLGSGGVGKSALTVQFVTGTFIEKYDPTIEDFYRKEIEVDSSPSVLEILDTAGTEQFASMRDLYIKNGQGFILVYSLVNQQSFQDIKPMRDQIVRVKRYEKVPLILVGNKVDLEPEREVMSSEGRALAQEWGCPFMETSAKSKSMVDELFAEIVRQMNYSSLPEKQDQCCTTCVVQ”, “not soluble”.
With “MDMKHTLLEALGIEIVENTAERCVAVMPVDHRTVQPFGYLHGGASVALAETAARPGAQNLIDHTTQACVGLEINANHLKSVKEGTVKAIAEPVHIGRTTIVYHIHIYDEQERLICISRCTLAVIKKLEHHHHHH”, the “soluble on expression in E. coli” value was “soluble”.

Values taken from the DeepSol protein solubility set.
